# In patent publication US8450280B2, “Activation of peptide prodrugs by hK2” (GenbSpera, Inc., priority 1999, dated 2013):
# Non-standard residues stand in square brackets, D forms with d. No end group written: not given here.
# Key:
# [1] = Serum hydrolysis of hK2 substrates; format: in vitro ADME; settings: 50% fresh human serum in 50 mM Tris, 0.1 M NaCl, pH 7.8
# Method: (§1) Hydrolyses of particular hK2 substrates were carried out at a hK2 concentrations of 1 μg/ml in 50 mM Tris buffer, with 0.1 M NaCl, at pH 7.8. Serum hydrolysis measurements were carried out in 50% fresh human serum in 50 mM Tris buffer, with 0.1 M NaCl, at pH 7.8. The single letter amino acid code was used to designate the peptide sequences used for Table 4. The units FU are arbitrary fluorescence units. The entries “U.D.” were for measurements of less than 0.01 FU/hour.
# hK2 = biological target: T1, hK2 (Homo sapiens, UniProt P20151); assay: Hydrolysis of hK2 substrates by hK2; format: biochemical; settings: hK2 1 μg/ml, 50 mM Tris, 0.1 M NaCl, pH 7.8
# T1 construct: made in house
# T1 sequence (P20151 25-261): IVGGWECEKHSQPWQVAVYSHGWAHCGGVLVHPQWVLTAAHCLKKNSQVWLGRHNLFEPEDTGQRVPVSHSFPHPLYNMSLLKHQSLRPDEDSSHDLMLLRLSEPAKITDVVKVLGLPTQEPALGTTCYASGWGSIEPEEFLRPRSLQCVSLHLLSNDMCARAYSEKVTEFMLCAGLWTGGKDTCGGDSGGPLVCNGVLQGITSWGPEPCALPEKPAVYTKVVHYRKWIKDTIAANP
# Method: as §1
substance,measurement,setting,value
"SEQ ID NO: 75: hK2 substrate peptide, single letter sequence P7-P′1 (GSYPSSRL; listed as Homo sapiens)",Serum Hydrolysis Rate,[1]; Table 4,0.06 FU/hr
same,hK2 Hydrolysis Rate,hK2; Table 4,1456.18 FU/hr/m
"SEQ ID NO: 115: hK2 substrate peptide, single letter sequence P6-P′1 (GGKANRL; listed as Homo sapiens)",Serum Hydrolysis Rate,[1]; Table 5,0.01 FU/hr
same,hK2 Hydrolysis Rate,hK2; Table 5,1113.9 FU/hr/m
"SEQ ID NO: 117: hK2 substrate peptide, single letter sequence P6-P′1 (GGKARHL; listed as Homo sapiens)",Serum Hydrolysis Rate,[1]; Table 5,UD (The entries “U.D.” were for measurements of less than 0.01 FU/hour)
same,hK2 Hydrolysis Rate,hK2; Table 5,939.3 FU/hr/m
"SEQ ID NO: 91: hK2 substrate peptide, single letter sequence P7-P′1 (GSYPSSHL; listed as Homo sapiens)",Serum Hydrolysis Rate,[1]; Table 4,UD (The entries “U.D.” were for measurements of less than 0.01 FU/hour)
same,hK2 Hydrolysis Rate,hK2; Table 4,24.68 FU/hr/m
"SEQ ID NO: 107: hK2 substrate peptide, single letter sequence P6-P′1 (GGKHRRL; listed as Homo sapiens)",Serum Hydrolysis Rate,[1]; Table 5,UD (The entries “U.D.” were for measurements of less than 0.01 FU/hour)
same,hK2 Hydrolysis Rate,hK2; Table 5,2079.2 FU/hr/m
"SEQ ID NO: 82: hK2 substrate peptide, single letter sequence P7-P′1 (GSQNQVRL; listed as Homo sapiens)",Serum Hydrolysis Rate,[1]; Table 4,0.03 FU/hr
same,hK2 Hydrolysis Rate,hK2; Table 4,193.55 FU/hr/m
"SEQ ID NO: 83: hK2 substrate peptide, single letter sequence P7-P′1 (GPLILSRL; listed as Homo sapiens)",Serum Hydrolysis Rate,[1]; Table 4,0.07 FU/hr
same,hK2 Hydrolysis Rate,hK2; Table 4,118.21 FU/hr/m
"SEQ ID NO: 73: hK2 substrate peptide, single letter sequence P7-P′1 (GSQNQRRL; listed as Homo sapiens)",Serum Hydrolysis Rate,[1]; Table 4,0.05 FU/hr
same,hK2 Hydrolysis Rate,hK2; Table 4,2100.48 FU/hr/m
"SEQ ID NO: 72: hK2 substrate peptide, single letter sequence P7-P′1 (GKDVSRRL; listed as Homo sapiens)",Serum Hydrolysis Rate,[1]; Table 4,0.08 FU/hr
same,hK2 Hydrolysis Rate,hK2; Table 4,2316.12 FU/hr/m
"SEQ ID NO: 87: hK2 substrate peptide, single letter sequence P7-P′1 (GSNTEKHL; listed as Homo sapiens)",Serum Hydrolysis Rate,[1]; Table 4,0.03 FU/hr
same,hK2 Hydrolysis Rate,hK2; Table 4,80.54 FU/hr/m
"SEQ ID NO: 92: hK2 substrate peptide, single letter sequence P7-P′1 (GSQNQVHL; listed as Homo sapiens)",Serum Hydrolysis Rate,[1]; Table 4,0.03 FU/hr
same,hK2 Hydrolysis Rate,hK2; Table 4,32.48 FU/hr/m
"SEQ ID NO: 111: hK2 substrate peptide, single letter sequence P6-P′1 (GGKARRS; listed as Homo sapiens)",Serum Hydrolysis Rate,[1]; Table 5,UD (The entries “U.D.” were for measurements of less than 0.01 FU/hour)
same,hK2 Hydrolysis Rate,hK2; Table 5,1609.6 FU/hr/m
"SEQ ID NO: 97: hK2 substrate peptide, single letter sequence P7-P′1 (GHEQKRRA; listed as Homo sapiens)",Serum Hydrolysis Rate,[1]; Table 5,0.06 FU/hr
same,hK2 Hydrolysis Rate,hK2; Table 5,3051.5 FU/hr/m
"SEQ ID NO: 70: hK2 substrate peptide, single letter sequence P7-P′1 (GSKGHFRL; listed as Homo sapiens)",Serum Hydrolysis Rate,[1]; Table 4,0.04 FU/hr
same,hK2 Hydrolysis Rate,hK2; Table 4,3029.27 FU/hr/m
"SEQ ID NO: 109: hK2 substrate peptide, single letter sequence P6-P′1 (GGKAKRL; listed as Homo sapiens)",Serum Hydrolysis Rate,[1]; Table 5,0.14 FU/hr
same,hK2 Hydrolysis Rate,hK2; Table 5,1788.9 FU/hr/m
"SEQ ID NO: 95: hK2 substrate peptide, single letter sequence P7-P′1 (GHEAKRRL; listed as Homo sapiens)",Serum Hydrolysis Rate,[1]; Table 5,UD (The entries “U.D.” were for measurements of less than 0.01 FU/hour)
same,hK2 Hydrolysis Rate,hK2; Table 5,3324.1 FU/hr/m
"SEQ ID NO: 110: hK2 substrate peptide, single letter sequence P7-P′1, dL at P′1 (GHEQKRR[dL]; listed as Homo sapiens)",Serum Hydrolysis Rate,[1]; Table 5,0.15 FU/hr
same,hK2 Hydrolysis Rate,hK2; Table 5,1690.9 FU/hr/m
"SEQ ID NO: 106: hK2 substrate peptide, single letter sequence P6-P′1 (GGKQRRL; listed as Homo sapiens)",Serum Hydrolysis Rate,[1]; Table 5,0.02 FU/hr
same,hK2 Hydrolysis Rate,hK2; Table 5,2171.2 FU/hr/m
"SEQ ID NO: 119: hK2 substrate peptide, single letter sequence P6-P′1, dR at P2 (GGKA[dR]RL; listed as Homo sapiens)",Serum Hydrolysis Rate,[1]; Table 5,0.06 FU/hr
same,hK2 Hydrolysis Rate,hK2; Table 5,494.4 FU/hr/m
"SEQ ID NO: 99: hK2 substrate peptide, single letter sequence P7-P′1 (GHEQKRRS; listed as Homo sapiens)",Serum Hydrolysis Rate,[1]; Table 5,UD (The entries “U.D.” were for measurements of less than 0.01 FU/hour)
same,hK2 Hydrolysis Rate,hK2; Table 5,2638.5 FU/hr/m
"SEQ ID NO: 74: hK2 substrate peptide, single letter sequence P7-P′1 (GSYPSRRL; listed as Homo sapiens)",Serum Hydrolysis Rate,[1]; Table 4,0.09 FU/hr
same,hK2 Hydrolysis Rate,hK2; Table 4,2060.21 FU/hr/m
"SEQ ID NO: 112: hK2 substrate peptide, single letter sequence P6-P′1 (GGKARKL; listed as Homo sapiens)",Serum Hydrolysis Rate,[1]; Table 5,UD (The entries “U.D.” were for measurements of less than 0.01 FU/hour)
same,hK2 Hydrolysis Rate,hK2; Table 5,1602.4 FU/hr/m
"SEQ ID NO: 93: hK2 substrate peptide, single letter sequence P7-P′1 (GHAQKRRL; listed as Homo sapiens)",Serum Hydrolysis Rate,[1]; Table 5,0.08 FU/hr
same,hK2 Hydrolysis Rate,hK2; Table 5,3665.1 FU/hr/m
"SEQ ID NO: 79: hK2 substrate peptide, single letter sequence P7-P′1 (GKDVSGRL; listed as Homo sapiens)",Serum Hydrolysis Rate,[1]; Table 4,0.05 FU/hr
same,hK2 Hydrolysis Rate,hK2; Table 4,242.91 FU/hr/m
"SEQ ID NO: 76: hK2 substrate peptide, single letter sequence P7-P′1 (GHEQKGRL; listed as Homo sapiens)",Serum Hydrolysis Rate,[1]; Table 4,0.04 FU/hr
same,hK2 Hydrolysis Rate,hK2; Table 4,650.80 FU/hr/m
"SEQ ID NO: 121: hK2 substrate peptide, single letter sequence P6-P′1 (GGKAHKL; listed as Homo sapiens)",Serum Hydrolysis Rate,[1]; Table 5,UD (The entries “U.D.” were for measurements of less than 0.01 FU/hour)
same,hK2 Hydrolysis Rate,hK2; Table 5,73.2 FU/hr/m
"SEQ ID NO: 86: hK2 substrate peptide, single letter sequence P7-P′1 (GGGKAHHL; listed as Homo sapiens)",Serum Hydrolysis Rate,[1]; Table 4,0.05 FU/hr
same,hK2 Hydrolysis Rate,hK2; Table 4,70.15 FU/hr/m
"SEQ ID NO: 98: hK2 substrate peptide, single letter sequence P6-P′1 (GGAKRRL; listed as Homo sapiens)",Serum Hydrolysis Rate,[1]; Table 5,0.02 FU/hr
same,hK2 Hydrolysis Rate,hK2; Table 5,2773.0 FU/hr/m
"SEQ ID NO: 69: hK2 substrate peptide, single letter sequence P7-P′1 (GPAHQRRL; listed as Homo sapiens)",Serum Hydrolysis Rate,[1]; Table 4,0.10 FU/hr
same,hK2 Hydrolysis Rate,hK2; Table 4,4017.81 FU/hr/m
"SEQ ID NO: 103: hK2 substrate peptide, single letter sequence P7-P′1 (GAEQKRRL; listed as Homo sapiens)",Serum Hydrolysis Rate,[1]; Table 5,0.10 FU/hr
same,hK2 Hydrolysis Rate,hK2; Table 5,2325.8 FU/hr/m
"SEQ ID NO: 89: hK2 substrate peptide, single letter sequence P7-P′1 (GHEQKGHL; listed as Homo sapiens)",Serum Hydrolysis Rate,[1]; Table 4,UD (The entries “U.D.” were for measurements of less than 0.01 FU/hour)
same,hK2 Hydrolysis Rate,hK2; Table 4,1.30 FU/hr/m
"SEQ ID NO: 101: hK2 substrate peptide, single letter sequence P6-P′1 (GGHKRRL; listed as Homo sapiens)",Serum Hydrolysis Rate,[1]; Table 5,UD (The entries “U.D.” were for measurements of less than 0.01 FU/hour)
same,hK2 Hydrolysis Rate,hK2; Table 5,2428.4 FU/hr/m
"SEQ ID NO: 78: hK2 substrate peptide, single letter sequence P7-P′1 (GSYEERRL; listed as Homo sapiens)",Serum Hydrolysis Rate,[1]; Table 4,0.04 FU/hr
same,hK2 Hydrolysis Rate,hK2; Table 4,324.75 FU/hr/m
"SEQ ID NO: 108: hK2 substrate peptide, single letter sequence P7-P′1 (GHEQARRL; listed as Homo sapiens)",Serum Hydrolysis Rate,[1]; Table 5,0.14 FU/hr
same,hK2 Hydrolysis Rate,hK2; Table 5,1956.4 FU/hr/m
